Experimental data taken from article PMC3834315.

Target: T1, C-terminally hexa-histidine (His6)-tagged VapC10 (toxin, PIN-domain protein, slr1767) of Synechocystis sp. … (Synechocystis sp. PCC 6803, UniProt P73045 1-112)
T1 construct: also called VapC10-His6; VapC-His6; not shown: His6, C-terminal, kept
T1 sequence (looked up): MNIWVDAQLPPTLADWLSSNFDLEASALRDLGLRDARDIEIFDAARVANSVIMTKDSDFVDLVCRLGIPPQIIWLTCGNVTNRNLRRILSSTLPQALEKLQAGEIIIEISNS
Test: pull-down
Settings: partners not purified

B1: VapB10 (antitoxin, COG2442-domain protein, ssr2962) of Synechocystis sp. PCC 6803 (natural protein, UniProt P73044 1-74, looked up)
chain: MNSLLSRITQTPGQCGGRPCIRGMRIRVSDILEMLAENVSTSEILEDFPDLEMADIQACLVFAARRTDFSRLTA
notes: source: E. coli BL21(DE3)(pJS653), co-expressed with VapC10-His6, in cleared lysate
Question: With B1 as the binder, how does the “stoichiometry N” value read?
Answer: ~1 VapB10 per VapC10-His6
